Reference: article PMC12440825, “SNARE disassembly requires Sec18/NSF side loading” (Nature Structural & Molecular Biology, 2025)
Values belong to the binder of their own block, whether it stands above or below them.

B2: Sec18 (recombinant, complete coding sequence) (enzyme, S. cerevisiae, UniProt P18759 1-758, looked up)
chain: MFKIPGFGKAAANHTPPDMTNMDTRTRHLKVSNCPNNSYALANVAAVSPNDFPNNIYIIIDNLFVFTTRHSNDIPPGTIGFNGNQRTWGGWSLNQDVQAKAFDLFKYSGKQSYLGSIDIDISFRARGKAVSTVFDQDELAKQFVRCYESQIFSPTQYLIMEFQGHFFDLKIRNVQAIDLGDIEPTSAVATGIETKGILTKQTQINFFKGRDGLVNLKSSNSLRPRSNAVIRPDFKFEDLGVGGLDKEFTKIFRRAFASRIFPPSVIEKLGISHVKGLLLYGPPGTGKTLIARKIGTMLNAKEPKIVNGPEILSKYVGSSEENIRNLFKDAEAEYRAKGEESSLHIIIFDELDSVFKQRGSRGDGTGVGDNVVNQLLAKMDGVDQLNNILVIGMTNRKDLIDSALLRPGRFEVQVEIHLPDEKGRLQIFDIQTKKMRENNMMSDDVNLAELAALTKNFSGAEIEGLVKSASSFAINKTVNIGKGATKLNTKDIAKLKVTREDFLNALNDVTPAFGISEEDLKTCVEGGMMLYSERVNSILKNGARYVRQVRESDKSRLVSLLIHGPAGSGKTALAAEIALKSGFPFIRLISPNELSGMSESAKIAYIDNTFRDAYKSPLNILVIDSLETLVDWVPIGPRFSNNILQMLKVALKRKPPQDRRLLIMTTTSAYSVLQQMDILSCFDNEIAVPNMTNLDELNNVMIESNFLDDAGRVKVINELSRSCPNFNVGIKKTLTNIETARHDEDPVNELVELMTQSA
notes: Hexamer in the y20S complex; heptamer or split hexamer with ATP and Mg2+; No TEV cleavage is described for the preparation used for y20S; also called wild-type Sec18; substrate-free Sec18; source: E. coli BL21(DE3), purified (Ni-NTA, SEC)
B4: Sec9 (401–651) (domain or fragment, S. cerevisiae, UniProt P40357 401-651, looked up)
chain: QRGYKTFEEIQKEEEARQQQEEDEAVDEIKQEIKFTKQSSVASTRNTLKMAQDAERAGMNTLGMLGHQSEQLNNVEGNLDLMKVQNKVADEKVAELKKLNRSILAVHVSNPFNSKRRRREREEQLKNRKIEEKLMREQTSQQLSQSTQRIEGAMNANNNISEVRERYQRKNVLEKAKRYQFENDEEDDEMELEIDRNLDQIQQVSNRLKKMALTTGKELDSQQKRLNNIEESTDDLDINLHMNTNRLAGIR
notes: Sec9, S. cerevisiae SNAP25-like SNARE, residues 401-651; source: E. coli BL21(DE3), purified (Ni-NTA, TEV, MonoS, SEC); not shown: His6, N-terminal, cleaved
B5: Sso1 (1–265) (domain or fragment, S. cerevisiae, UniProt P32867 1-265, looked up)
chain: MSYNNPYQLETPFEESYELDEGSSAIGAEGHDFVGFMNKISQINRDLDKYDHTINQVDSLHKRLLTEVNEEQASHLRHSLDNFVAQATDLQFKLKNEIKSAQRDGIHDTNKQAQAENSRQRFLKLIQDYRIVDSNYKEENKEQAKRQYMIIQPEATEDEVEAAISDVGGQQIFSQALLNANRRGEAKTALAEVQARHQELLKLEKSMAELTQLFNDMEELVIEQQENVDVIDKNVEDAQLDVEQGVGHTDKAVKSARKARKNKIR
notes: Sso1, S. cerevisiae syntaxin-like SNARE, residues 1-265 (Habc domain, linker, SNARE domain; no transmembrane domain); also called SNARE Sso1; source: E. coli BL21(DE3), purified (Ni-NTA, TEV, ion exchange, SEC); not shown: His6, N-terminal, cleaved

Experiments:
[1] = molecular target: T1, yeast exocytic SNARE complex Sso1–Sec9–Snc1 (S. cerevisiae, UniProt P32867 1-265; P40357 401-651; P31109 1-93); experiment: cryo-EM structure; y20S complex in the nonhydrolyzing condition: preformed ySNARE complex + Sec17 + EDTA-quenched Sec18 (Sec18:SNARE:Sec17 1:1.67:10) in 50 mM Tris, 150 mM NaCl, 1 mM TCEP, 1 mM ATP, 1 mM EDTA pH 8, Superose 6; eight 3D classes; settings: both partners purified
T1 construct: Sso1, S. cerevisiae, residues 1-265; as m4; Sec9, S. cerevisiae, residues 401-651; as m5; Snc1, S. cerevisiae, residues 1-93; as m6; also called ySNARE complex; yeast exocytic complex; source: E. coli BL21(DE3), each SNARE purified, mixed 1:1:1 in 6 M GdHCl, dialysed, purified (MonoQ); not shown: His6, N-terminal, cleaved; copies: 1 + 1 + 1
T1 sequence (looked up) 1: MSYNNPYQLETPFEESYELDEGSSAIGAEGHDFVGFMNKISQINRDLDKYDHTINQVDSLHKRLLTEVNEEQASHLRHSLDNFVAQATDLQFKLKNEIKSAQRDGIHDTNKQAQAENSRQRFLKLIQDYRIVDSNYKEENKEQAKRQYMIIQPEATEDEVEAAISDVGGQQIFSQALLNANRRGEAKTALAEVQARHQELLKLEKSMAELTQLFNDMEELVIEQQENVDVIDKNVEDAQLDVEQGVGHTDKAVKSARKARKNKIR
T1 sequence (looked up) 2: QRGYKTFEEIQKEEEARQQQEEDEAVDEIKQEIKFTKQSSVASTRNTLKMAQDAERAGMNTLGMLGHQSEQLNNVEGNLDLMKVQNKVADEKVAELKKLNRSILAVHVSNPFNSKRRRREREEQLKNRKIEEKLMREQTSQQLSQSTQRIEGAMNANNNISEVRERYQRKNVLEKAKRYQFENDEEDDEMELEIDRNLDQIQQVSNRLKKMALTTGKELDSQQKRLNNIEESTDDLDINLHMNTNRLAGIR
T1 sequence (looked up) 3: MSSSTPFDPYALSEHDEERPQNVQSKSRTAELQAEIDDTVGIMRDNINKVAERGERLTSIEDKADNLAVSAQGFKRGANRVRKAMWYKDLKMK

[2] = molecular target: B2; experiment: cryo-EM structure; y20S complex in the hydrolyzing condition: as nonhydrolyzing, excess MgCl2 added on the grid, 7 s before vitrification; classes 1-4; settings: both partners purified
[3] = molecular target: the molecule itself; experiment: cryo-EM structure; y20S complex in the nonhydrolyzing condition: preformed ySNARE complex + Sec17 + EDTA-quenched Sec18 (Sec18:SNARE:Sec17 1:1.67:10) in 50 mM Tris, 150 mM NaCl, 1 mM TCEP, 1 mM ATP, 1 mM EDTA pH 8, Superose 6; eight 3D classes
[4] = molecular target: the molecule itself; experiment: cryo-EM structure; y20S complex in the hydrolyzing condition: as nonhydrolyzing, excess MgCl2 added on the grid, 7 s before vitrification; classes 1-4
Sec9 (401–651) = molecular target: B4; experiment: cryo-EM structure; y20S complex in the nonhydrolyzing condition: preformed ySNARE complex + Sec17 + EDTA-quenched Sec18 (Sec18:SNARE:Sec17 1:1.67:10) in 50 mM Tris, 150 mM NaCl, 1 mM TCEP, 1 mM ATP, 1 mM EDTA pH 8, Superose 6; eight 3D classes; settings: both partners purified
Sso1 (1–265) = molecular target: B5; experiment: as above; settings: both partners purified
[5] = molecular target: the molecule itself; experiment: cryo-EM structure; substrate-free NSF in the hydrolyzing condition: buffer with ATP and 1 mM MgCl2 instead of EDTA, final SEC; four classes, 3DVA of class 3

binding result [1]: binds
binding result [2]: binds
B1: Sec17 (natural protein, S. cerevisiae, UniProt P32602 1-292, looked up)
chain: MSDPVELLKRAEKKGVPSSGFMKLFSGSDSYKFEEAADLCVQAATIYRLRKELNLAGDSFLKAADYQKKAGNEDEAGNTYVEAYKCFKSGGNSVNAVDSLENAIQIFTHRGQFRRGANFKFELGEILENDLHDYAKAIDCYELAGEWYAQDQSVALSNKCFIKCADLKALDGQYIEASDIYSKLIKSSMGNRLSQWSLKDYFLKKGLCQLAATDAVAAARTLQEGQSEDPNFADSRESNFLKSLIDAVNEGDSEQLSEHCKEFDNFMRLDKWKITILNKIKESIQQQEDDLL
notes: also called Sec17/α-SNAP; adaptor Sec17; source: E. coli BL21(DE3), purified (Ni-NTA, TEV, MonoQ, SEC); not shown: His10, N-terminal, cleaved

Binder: B2
stoichiometry N [3]: 6
stoichiometry N [4]: 7

binding result (Sec9 (401–651)): binds
binding result (Sso1 (1–265)): binds
B3: Snc1 (1–93) (domain or fragment, S. cerevisiae, UniProt P31109 1-93, looked up)
chain: MSSSTPFDPYALSEHDEERPQNVQSKSRTAELQAEIDDTVGIMRDNINKVAERGERLTSIEDKADNLAVSAQGFKRGANRVRKAMWYKDLKMK
notes: Snc1, S. cerevisiae synaptobrevin-like SNARE, residues 1-93; source: E. coli BL21(DE3), purified (Ni-NTA, TEV, ion exchange, SEC); not shown: His6, N-terminal, cleaved

Binder: B4
binding result (Sso1 (1–265)): binds

Binder: B5
binding result [2]: binds

B6: NSF (N-ethylmaleimide-sensitive factor) (enzyme, C. griseus)
chain: MAGRSMQAARCPTDELSLSNCAVVSEKDYQSGQHVIVRTSPNHKYIFTLRTHPSVVPGSVAFSLPQRKWAGLSIGQEIEVALYSFDKAKQCIGTMTIEIDFLQKKNIDSNPYDTDKMAAEFIQQFNNQAFSVGQQLVFSFNDKLFGLLVKDIEAMDPSILKGEPASGKRQKIEVGLVVGNSQVAFEKAENSSLNLIGKAKTKENRQSIINPDWNFEKMGIGGLDKEFSDIFRRAFASRVFPPEIVEQMGCKHVKGILLYGPPGCGKTLLARQIGKMLNAREPKVVNGPEILNKYVGESEANIRKLFADAEEEQRRLGANSGLHIIIFDEIDAICKQRGSMAGSTGVHDTVVNQLLSKIDGVEQLNNILVIGMTNRPDLIDEALLRPGRLEVKMEIGLPDEKGRLQILHIHTARMRGHQLLSADVDIKELAVETKNFSGAELEGLVRAAQSTAMNRHIKASTKVEVDMEKAESLQVTRGDFLASLENDIKPAFGTNQEDYASYIMNGIIKWGDPVTRVLDDGELLVQQTKNSDRTPLVSVLLEGPPHSGKTALAAKIAEESNFPFIKICSPDKMIGFSETAKCQAMKKIFDDAYKSQLSCVVVDDIERLLDYVPIGPRFSNLVLQALLVLLKKAPPQGRKLLIIGTTSRKDVLQEMEMLNAFSTTIHVPNIATGEQLLEALELLGNFKDKERTTIAQQVKGKKVWIGIKKLLMLIEMSLQMDPEYRVRKFLALLREEGASPLDFD
notes: Heptamer (class 1) or hexamer (classes 2-4) with ATP and Mg2+; also called substrate-free NSF; high-purity NSF
stoichiometry N [5]: 7
